# Assay results published in PMC12169211.
# Molecular target: thrombin (biotinylated, immobilized on streptavidin microparticles) (UniProt P00734;P00734 328-363;364-622)
# Test: microparticle flow cytometry; Thrombin-microparticles incubated with 0.5-200 nM FAM-aptamer, washed with DPBS, flow cytometry; binding buffer, pH and temperature not stated
row,Binder,Kd
1,hybrid bispecific aptamer without toehold (HBA; 15-mer-Sticky + 29-mer-Sticky) (structured_DNA) DNA 1: GGTTGGTGTGGTTGGTTTTTGACCCTGCGTACC DNA 2: AGTCCGTGGTAGGGCAGGTTGGGGTGACTTTTTTGGTACGCAGGTC,4.8 nM
2,toehold hybrid bispecific aptamer (THBA; 15-mer-Sticky + 29-mer-Sticky-TH) (structured_DNA) DNA 1: GGTTGGTGTGGTTGGTTTTTGACCCTGCGTACC DNA 2: AGTCCGTGGTAGGGCAGGTTGGGGTGACTTTTTTGGTACGCAGGTCCGTTA,~5.7 nM
